The values that follow come from US20210363215A1 (published 2021).

For this test, the target named is T1, MAGE-B2 (peptide MB2-231) peptide on HLA-A*02:01 (human).
T1 peptide: GVYDGEEHSV
Kind of test: multimer staining.

B1: MAGE-B2-231 C5 TCR (TCR, V domains shown)
Valpha: KNQVEQSPQSLIILEGKNCTLQCNYTVSPFSNLRWYKQDTGRGPVSLTIMTFSENTKSNGRYTATLDADTKQSSLHITASQLSDSASYICVVISGFQKLVFGTGTRLLVSP
Vbeta: EAGVVQSPRYKIIEKKQPVAFWCNPISGHNTLYWYRQNLGQGPELLIRYENEEAVDDSQLPKDRFSAERLKGVDSTLKIQPAELGDSAVYLCASSFPKQGSYNEQFFGPGTRLTVL
For B1, the binding result is “recognises”.

B2: MAGE-B2 TCR of SEQ ID NOs 3 and 5 (TCR, V domains shown)
Valpha: GNSVTQMEGPVTLSEEAFLTINCTYTATGYPSLFWYVQYPGEGLQLLLKATKADDKGSNKGFEATYRKETTSFHLEKGSVQVSDSAVYFCALTNDYKLSFGAGTTVTVRA
Vbeta: DAMVIQNPRYQVTQFGKPVTLSCSQTLNHNVMYWYQQKSSQAPKLLFHYYDKDFNNEADTPDNFQSRRPNTSFCFLDIRSPGLGDAAMYLCATSRGGRYNEQFFGPGTRLTVL
On to B2, for which the binding result is given as “recognises”.
